In patent publication US20090162366A1:

What was measured:
[1] = target: M2 peptide (influenza A virus, A/Hong Kong/1/68 (H3N2)); assay: ELISA on peptide, Ab 10 µg/ml
[2] = target: M2TGE (influenza A virus, A/DK/ST/5048/2001 (H3N8))
[3] = target: M2LTKGS (influenza A virus, A/Hong Kong/542/97 (H5N1))
[4] = target: M2TDGEKS (influenza A virus, A/chicken/Pennsylvania/13552-1/98 (H7N2NSB))
[5] = target: M2KTGEKS (influenza A virus, A/Quail/Arkansas/16309-7/94 (H7N3NSA))
[6] = target: M2LTGEKS (influenza A virus, A/Hong Kong/1074/99 (H9N2))
[7] = target: M2GHTGKS (influenza A virus, A/chicken/HongKong/SF1/03 (H9N2))
[8] = target: M2TGEKS (influenza A virus, A/Canada/rv504/2004 (H7N3))
[9] = target: M2PHTGS (influenza A virus, A/chicken/HongKong/YU427/03 (H9N2))
[10] = target: M2HTGEKS (influenza A virus, A/chicken/California/1002a/00 (H6N2))
[11] = target: M2LTGS (influenza A virus, A/Hong Kong/156/97 (H5N1))
[12] = target: M2KTGEKS peptide conjugated with BSA (influenza A virus, A/Quail/Arkansas/16309-7/94 (H7N3NSA)); assay: peptide-BSA ELISA; legend: EC50 > 10^-8M: -
[13] = target: M2TDGEKS peptide conjugated with BSA (influenza A virus, A/chicken/Pennsylvania/13552-1/98 (H7N2NSB)); assay: peptide-BSA ELISA; legend: EC50 > 10^-8M: -
[14] = target: M2LTKGS peptide conjugated with BSA (influenza A virus, A/Hong Kong/542/97 (H5N1)); assay: peptide-BSA ELISA; legend: EC50 > 10^-8M: -
[15] = target: M2LTGEKS-BSA conjugate (influenza A virus, A/Hong Kong/1074/99 (H9N2)); assay: peptide-BSA ELISA; legend: EC50 > 10^-8M: -
[16] = target: M2LTGS peptide conjugated with BSA (influenza A virus, A/Hong Kong/156/97 (H5N1)); assay: peptide-BSA ELISA; legend: EC50 > 10^-8M: -
[17] = target: M2TGEK-BSA conjugate (influenza A virus, A/Netherlands/33/03 (H7N7)); assay: peptide-BSA ELISA; legend: EC50 > 10^-8M: -
[18] = target: M2PHTGS peptide conjugated with BSA (influenza A virus, A/chicken/HongKong/YU427/03 (H9N2)); assay: peptide-BSA ELISA; legend: EC50 > 10^-8M: -
[19] = target: M2HTGEKS peptide conjugated with BSA (influenza A virus, A/chicken/California/1002a/00 (H6N2)); assay: peptide-BSA ELISA; legend: EC50 > 10^-8M: -
[20] = target: M2GHTGKS peptide conjugated with BSA (influenza A virus, A/chicken/HongKong/SF1/03 (H9N2)); assay: peptide-BSA ELISA; legend: EC50 > 10^-8M: -
[21] = target: M2EG peptide conjugated with BSA (influenza A virus, A/New York/687/1995 (H3N2)); assay: peptide-BSA ELISA (++ EC50<10^-9M; + 10^-9M<EC50<10^-8M)
[22] = target: M2TES peptide conjugated with BSA (influenza A virus, A/Viet Nam/1203/2004 (H5N1)); assay: as above
[23] = target: M2SG peptide conjugated with BSA (influenza A virus, A/swine/Tennessee/25/77 (H1N1)); assay: as above
[24] = target: M2TGEKS peptide conjugated with BSA (influenza A virus, A/Canada/rv504/2004 (H7N3)); assay: as above
[25] = target: M2TGS-BSA conjugate (influenza A virus, A/chicken/Shanghai/F/98 (H9N2)); assay: as above
[26] = target: M2KGENS peptide conjugated with BSA (influenza A virus, A/Turkey/VA/158512/02 (H7N2)); assay: as above
[27] = target: M2-BSA conjugate (influenza A virus, A/Hong Kong/1/68 (H3N2)); assay: as above
[28] = target: M2FG peptide conjugated with BSA (influenza A virus, A/X-31 (H3N2)); assay: as above
[29] = target: M2TGE-BSA conjugate (influenza A virus, A/DK/ST/5048/2001 (H3N8)); assay: as above
[30] = target: M2DLTGS peptide conjugated with BSA (influenza A virus, A/Hong Kong/485/97 (H5N1)); assay: as above
[31] = target: M2KTGEKS peptide conjugated with BSA (influenza A virus, A/Quail/Arkansas/16309-7/94 (H7N3NSA)); assay: peptide-BSA ELISA
[32] = target: M2TDGEKS peptide conjugated with BSA (influenza A virus, A/chicken/Pennsylvania/13552-1/98 (H7N2NSB)); assay: peptide-BSA ELISA
[33] = target: M2LTKGS peptide conjugated with BSA (influenza A virus, A/Hong Kong/542/97 (H5N1)); assay: peptide-BSA ELISA
[34] = target: M2LTGEKS-BSA conjugate (influenza A virus, A/Hong Kong/1074/99 (H9N2)); assay: peptide-BSA ELISA
[35] = target: M2LTGS peptide conjugated with BSA (influenza A virus, A/Hong Kong/156/97 (H5N1)); assay: peptide-BSA ELISA
[36] = target: M2TGEK-BSA conjugate (influenza A virus, A/Netherlands/33/03 (H7N7)); assay: peptide-BSA ELISA
[37] = target: M2PHTGS peptide conjugated with BSA (influenza A virus, A/chicken/HongKong/YU427/03 (H9N2)); assay: peptide-BSA ELISA
[38] = target: M2HTGEKS peptide conjugated with BSA (influenza A virus, A/chicken/California/1002a/00 (H6N2)); assay: peptide-BSA ELISA
[39] = target: M2GHTGKS peptide conjugated with BSA (influenza A virus, A/chicken/HongKong/SF1/03 (H9N2)); assay: peptide-BSA ELISA

mouse anti-M2 antibody 14C2
1 to 10 nM: EC50 [24] | EC50 [30]
> 10 nM: EC50 [12] | EC50 [13] | EC50 [14] | EC50 [15] | EC50 [16] | EC50 [17] | EC50 [18] | EC50 [19] | EC50 [20] | EC50 [31] | EC50 [32] | EC50 [33] | EC50 [34] | EC50 [35] | EC50 [36] | EC50 [37] | EC50 [38] | EC50 [39]
1.97 OD450: ELISA(OD450) [1]
< 1 nM: EC50 [21] | EC50 [22] | EC50 [23] | EC50 [25] | EC50 [26] | EC50 [27] | EC50 [28] | EC50 [29]
< 10%: % of O.D. on M2 (SEQ ID NO:1) [2] | % of O.D. on M2 (SEQ ID NO:1) [3] | % of O.D. on M2 (SEQ ID NO:1) [4] | % of O.D. on M2 (SEQ ID NO:1) [5] | % of O.D. on M2 (SEQ ID NO:1) [6] | % of O.D. on M2 (SEQ ID NO:1) [7] | % of O.D. on M2 (SEQ ID NO:1) [8] | % of O.D. on M2 (SEQ ID NO:1) [9] | % of O.D. on M2 (SEQ ID NO:1) [10] | % of O.D. on M2 (SEQ ID NO:1) [11]
